Values quoted from earlier work in patent publication US8030446B2, “Mutant proline-and-arginine rich peptides and methods for using the same” (Trustees of Dartmouth College, priority 2006, dated 2011).

Molecular target: T1, Mammalian (Human) 20s Proteasome (Homo sapiens, UniProt P25788)
T1 construct: purchased Boston Biochem (Cambridge, Mass.)
Details: Gaczynska, et al. (2003); cited from earlier work

RRRPRPPY [PR8]
20S proteasome inhibiting activity (in words): does not inhibit 20S activity
